Results: patent US20240241135A1 (SENBOLL BIOTECHNOLOGY, published 2024)

T1: recombinant human regenerating islet-derived protein 1α (REG1A) (human, UniProt P05451 23-166, limits assumed)
T1 construct: also called recombinant human REG1A; recombinant REG1A
T1 sequence (looked up): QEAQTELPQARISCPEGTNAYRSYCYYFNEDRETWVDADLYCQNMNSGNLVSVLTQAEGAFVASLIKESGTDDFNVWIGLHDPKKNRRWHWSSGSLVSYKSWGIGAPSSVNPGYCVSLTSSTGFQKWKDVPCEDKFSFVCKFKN

B1: antibody 21B11D2 (antibody, mouse IgG2b, kappa, V domains shown)
VH: QAQLQQSGAELVRPGASVTLSCKASGYIFTDYEMHWVKQTPVHGLEWIGAIDPETGGTAYNQKFKGKARLTADKSSSTAYMELRSLTSEDSAVYYCTIYYTNHFDYWGQGTTLTVSS
VL: DVVMTQTPLSLPVSLGDQASISCRSSQSLVYSNGDTYLYWYLQKPGQSPKLLIYKVSNRFSGVPDRFSGSGSGTDFTLKISRVEAEDLGVYFCSQSTHVPLTFGAGTKLELKR
notes: Mouse monoclonal from hybridoma, stated mouse IgG1/Kappa; Used unlabelled as capture and biotin-labelled as detection antibody; also called 21B11D2-biotin
B2: antibody 12F12A10 (antibody, V domains shown)
VH: QVQLQQSATELARPGASVKMSCKASGYTFTSYMMHWVKQRPGQGLEWIGYINPSSGYTDYNQKFKDKTTLTADKSSSTAYMQLSSLTSEDSAVYYCARYRYPHYFDYWGQGTTLTVSS
VL: QIVLTQSPAIMSASPGEKVTMTCSASSSVSYIHWYQQKSGTSPKRWIYDTSKLASGVPARFSGSGSGTSYSLTISSMEAEDAAIYYCQQWSSNPPTFGAGTKLELKR
notes: Mouse monoclonal from hybridoma, stated mouse IgG1/Kappa; also called 12F12A10-biotin; Antibody 2

Legend:
[1] = target: T1, recombinant human regenerating …; assay: sandwich ELISA; capture 4H8F1; REG1A 1.23 ng/mL
In short: (§1)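 Plates were coated overnight at 4 °C with the capture monoclonal antibody in PBS and blocked for 2 h at 37 °C, after which recombinant human REG1A in basic diluent (100 μL per well) was incubated for 1 h at 37 °C. Bound protein was detected with a horseradish peroxidase-based detection antibody system and TMB substrate for 15 min at 37 °C, and 0.2M sulfuric acid stopped the reaction. The OD value from this sandwich ELISA is a background-corrected absorbance. The reading at 620/630 nm was subtracted from the reading at 450 nm.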

[2] = target: T1, recombinant human regenerating …; assay: sandwich ELISA; capture 4H8F1; REG1A 3.70 ng/mL
In short: as §1

[3] = target: T1, recombinant human regenerating …; assay: sandwich ELISA; capture 25F3C4; REG1A 1.23 ng/mL
In short: as §1

[4] = target: T1, recombinant human regenerating …; assay: sandwich ELISA; capture 25F3C4; REG1A 3.70 ng/mL
In short: as §1

[5] = target: T1, recombinant human regenerating …; assay: sandwich ELISA; capture 4H8F1; REG1A 11.11 ng/mL
In short: as §1

[6] = target: T1, recombinant human regenerating …; assay: sandwich ELISA; capture 4H8F1; REG1A 33.33 ng/mL
In short: as §1

[7] = target: T1, recombinant human regenerating …; assay: sandwich ELISA; capture 21B11D2; REG1A 1.23 ng/mL
In short: as §1

[8] = target: T1, recombinant human regenerating …; assay: sandwich ELISA; capture 21B11D2; REG1A 3.70 ng/mL
In short: as §1

[9] = target: T1, recombinant human regenerating …; assay: sandwich ELISA; capture 25F3C4; REG1A 11.11 ng/mL
In short: as §1

[10] = target: T1, recombinant human regenerating …; assay: sandwich ELISA; capture 25F3C4; REG1A 33.33 ng/mL
In short: as §1

[11] = target: T1, recombinant human regenerating …; assay: sandwich ELISA; capture 4H8F1; REG1A 100.00 ng/mL
In short: as §1

[12] = target: T1, recombinant human regenerating …; assay: sandwich ELISA; capture 11D11B11; REG1A 1.23 ng/mL
In short: as §1

[13] = target: T1, recombinant human regenerating …; assay: sandwich ELISA; capture 11D11B11; REG1A 3.70 ng/mL
In short: as §1

[14] = target: T1, recombinant human regenerating …; assay: sandwich ELISA; capture 12F12A10; REG1A 1.23 ng/mL
In short: as §1

[15] = target: T1, recombinant human regenerating …; assay: sandwich ELISA; capture 12F12A10; REG1A 3.70 ng/mL
In short: as §1

[16] = target: T1, recombinant human regenerating …; assay: sandwich ELISA; capture 21B11D2; REG1A 11.11 ng/mL
In short: as §1

[17] = target: T1, recombinant human regenerating …; assay: sandwich ELISA; capture 21B11D2; REG1A 33.33 ng/mL
In short: as §1

[18] = target: T1, recombinant human regenerating …; assay: sandwich ELISA; capture 25F3C4; REG1A 100.00 ng/mL
In short: as §1

[19] = target: T1, recombinant human regenerating …; assay: sandwich ELISA; capture 11D11B11; REG1A 11.11 ng/mL
In short: as §1

[20] = target: T1, recombinant human regenerating …; assay: sandwich ELISA; capture 11D11B11; REG1A 33.33 ng/mL
In short: as §1

[21] = target: T1, recombinant human regenerating …; assay: sandwich ELISA; capture 12F12A10; REG1A 11.11 ng/mL
In short: as §1

[22] = target: T1, recombinant human regenerating …; assay: sandwich ELISA; capture 12F12A10; REG1A 33.33 ng/mL
In short: as §1

[23] = target: T1, recombinant human regenerating …; assay: sandwich ELISA; capture 21B11D2; REG1A 100.00 ng/mL
In short: as §1

[24] = target: T1, recombinant human regenerating …; assay: sandwich ELISA; capture 11D11B11; REG1A 100.00 ng/mL
In short: as §1

[25] = target: T1, recombinant human regenerating …; assay: sandwich ELISA; capture 12F12A10; REG1A 100.00 ng/mL
In short: as §1

[26] = target: T1, recombinant human regenerating …; assay: sandwich ELISA; capture 4H8F1; REG1A 0 ng/mL (blank)
In short: as §1

[27] = target: T1, recombinant human regenerating …; assay: sandwich ELISA; capture 25F3C4; REG1A 0 ng/mL (blank)
In short: as §1

[28] = target: T1, recombinant human regenerating …; assay: sandwich ELISA; capture 21B11D2; REG1A 0 ng/mL (blank)
In short: as §1

[29] = target: T1, recombinant human regenerating …; assay: sandwich ELISA; capture 11D11B11; REG1A 0 ng/mL (blank)
In short: as §1

[30] = target: T1, recombinant human regenerating …; assay: sandwich ELISA; capture 12F12A10; REG1A 0 ng/mL (blank)
In short: as §1

Binder	OD value [1] [OD]	OD value [2] [OD]	OD value [3] [OD]	OD value [4] [OD]	OD value [5] [OD]	OD value [6] [OD]	OD value [7] [OD]	OD value [8] [OD]	OD value [9] [OD]	OD value [10] [OD]	OD value [11] [OD]	OD value [12] [OD]	OD value [13] [OD]	OD value [14] [OD]	OD value [15] [OD]	OD value [16] [OD]	OD value [17] [OD]	OD value [18] [OD]	OD value [19] [OD]	OD value [20] [OD]	further results
B1	0.072	0.068	0.066	0.068	0.07	0.073	0.066	0.069	0.069	0.071	0.08	0.07	0.06	1.18	2.38	0.069	0.071	0.073	0.066	0.063	OD value [21]: 2.89 OD; OD value [22]: 3.21 OD; OD value [23]: 0.068 OD; OD value [24]: 0.065 OD; OD value [25]: 3.35 OD; OD value [26]: 0.069 OD; OD value [27]: 0.068 OD; OD value [28]: 0.073 OD; OD value [29]: 0.068 OD; OD value [30]: 0.068 OD
B2	2.99	3.84	3.76	4.25	4.22	4.33	3.9	4.59	4.37	4.29	4.33	1.05	2.81	0.098	0.088	4.23	4.59	4.48	3.9	4.08	OD value [21]: 0.088 OD; OD value [22]: 0.098 OD; OD value [23]: 4.65 OD; OD value [24]: 4.22 OD; OD value [25]: 0.096 OD; OD value [26]: 0.088 OD; OD value [27]: 0.093 OD; OD value [28]: 0.09 OD; OD value [29]: 0.083 OD; OD value [30]: 0.089 OD
